{
  "source": "paper PMC6484772",
  "about": "“S100A3 a partner protein regulating the stability/activity of RARα and PML-RARα in cellular models of breast/lung cancer and acute myeloid leukemia” (Oncogene, 2018)",
  "binders": {"B1": {"name": "S100A3 (over-expressed in COS-7) (natural protein, human, UniProt P33764 1-101, looked up)", "chain": "MARPLEQAVAAIVCTFQEYAGRCGDKYKLCQAELKELLQKELATWTPTEFRECDYNKFMSVLDTNKDCEVDFVEYVRSLACLCLYCHEYFKDCPSEPPCSQ", "notes": "protein S100-A3; source: COS-7, transiently transfected (pcDNA3 expression plasmid for the S100A3 cDNA), in cell extract; immunoprecipitated with anti-S100A3 for the far-western"}},
  "biological_target": "T1, GST-RARα (UniProt P10276 1-462)",
  "T1 construct": "full-length RARα; also called GST-tagged full-length RARα; source: GST-tagged recombinant protein",
  "T1 sequence (looked up)": "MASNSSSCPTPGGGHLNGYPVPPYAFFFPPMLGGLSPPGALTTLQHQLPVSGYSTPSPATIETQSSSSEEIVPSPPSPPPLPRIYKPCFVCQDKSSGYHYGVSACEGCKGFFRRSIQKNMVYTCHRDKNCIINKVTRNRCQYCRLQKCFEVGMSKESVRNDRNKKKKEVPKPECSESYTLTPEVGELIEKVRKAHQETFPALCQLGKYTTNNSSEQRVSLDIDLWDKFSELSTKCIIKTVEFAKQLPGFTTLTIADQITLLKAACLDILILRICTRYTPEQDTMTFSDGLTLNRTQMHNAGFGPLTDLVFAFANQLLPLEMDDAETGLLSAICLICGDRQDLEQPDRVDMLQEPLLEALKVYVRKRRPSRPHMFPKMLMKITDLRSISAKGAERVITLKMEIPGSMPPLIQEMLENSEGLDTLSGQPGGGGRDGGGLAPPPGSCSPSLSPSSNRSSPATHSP",
  "experiment": "far-Western, overlay or dot blot; S100A3 immunoprecipitated from extracts of transfected COS-7 cells with anti-S100A3 beads, resolved and blotted; probed with GST-tagged RARα recombinant proteins; developed with an anti-GST antibody",
  "details": "both partners purified",
  "data": [
    {"binder": "B1", "values": [
      {"measurement": "binding result", "result": "binds"}
    ]}
  ]
}
